# Read-outs that look alike come from different tables or passages of the source. Non-standard residues stand in square brackets, D forms with d. No end group written: not given here. Aib = CC(C)(N)C(=O)O
# T1: human GIP receptor (glucose-dependent insulinotropic peptide receptor, GIPR) (human, UniProt P48546 22-466)
# T1 sequence (looked up): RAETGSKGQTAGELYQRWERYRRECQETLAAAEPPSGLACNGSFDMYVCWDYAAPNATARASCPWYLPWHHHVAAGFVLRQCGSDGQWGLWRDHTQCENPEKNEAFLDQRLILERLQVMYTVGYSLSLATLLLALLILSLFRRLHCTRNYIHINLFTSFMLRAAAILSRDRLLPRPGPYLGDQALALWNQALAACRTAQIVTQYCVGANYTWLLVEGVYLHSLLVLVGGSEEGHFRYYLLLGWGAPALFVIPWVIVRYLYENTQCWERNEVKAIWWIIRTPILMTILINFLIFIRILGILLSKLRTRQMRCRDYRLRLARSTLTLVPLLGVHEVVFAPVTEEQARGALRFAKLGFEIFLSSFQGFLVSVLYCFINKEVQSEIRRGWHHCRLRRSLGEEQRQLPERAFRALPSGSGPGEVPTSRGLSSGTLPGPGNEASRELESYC
# What was measured:
# Assay in all cases: cell-based or functional assay
# [1] = molecular target: T1, human GIP receptor (glucose-dependent …)
# [2] = molecular target: T2, human GLP-1 receptor (human, UniProt P43220 24-463)
# [3] = molecular target: T1, human GIP receptor (glucose-dependent …); remark: listed apart in the source
# [4] = molecular target: T2, human GLP-1 receptor; remark: listed apart in the source
Binder,"EC50(pM), cell agonistic activity (cAMP, HTRF) [1]","EC50(pM), cell agonistic activity [2]","EC50(pM), cell agonistic activity (cAMP, HTRF) [3]","EC50(pM), cell agonistic activity [4]"
Y[Aib]EGTFISDYSIALDRLHQEDFVNWLLAQKG [Sequence 16 (Seq ID. 16)],25.5 pM,> 100 pM,–,–
Y[Aib]EGTFISDYSIALDRLHQQDFVKWLLAQRG [Sequence 17 (Seq ID. 17)],58.2 pM,> 100 pM,–,–
Y[Aib]EGTFISDYSIALDRLHQQDFVNWLLAQKG [Sequence 18 (Seq ID. 18)],16.9 pM,> 100 pM,–,–
"Y[Aib]EGTFISDYSIALDEIHQKDFVNWLLAQRG (also: long-acting conjugating component, site and structure not given here) [Peptide 5 (long-acting conjugate of GIP analog, Seq ID. 5)]",–,–,27 pM,> 100 pM
"Y[Aib]EGTFISDYSIALDELHQKDFVNWLLAQRG (also: long-acting conjugating component, site and structure not given here) [Peptide 6 (long-acting conjugate of GIP analog, Seq ID. 6)]",–,–,32.2 pM,> 100 pM
"Y[Aib]EGTFISDYSIALDK(18‑(((23R)-23-carboxyl-2,11,20-trioxo-10,19-diaza-4,7,13,16-tetraoxatricosyl-23-yl)amino)‑18‑oxooctadecanoic acid acetyl)IHQQDFVNWLLAQRG",–,–,6.66 pM,> 100 pM
"Y[Aib]EGTFISDYSIALDK(18‑(((23R)-23-carboxyl-2,11,20-trioxo-10,19-diaza-4,7,13,16-tetraoxatricosyl-23-yl)amino)‑18‑oxooctadecanoic acid acetyl)LHQQDFVNWLLAQRG",–,–,4.26 pM,> 100 pM
"Y[Aib]EGTFISDYSIALDK(18‑(((23R)-23-carboxyl-2,11,20-trioxo-10,19-diaza-4,7,13,16-tetraoxatricosyl-23-yl)amino)‑18‑oxooctadecanoic acid acetyl)IHQEDFVNWLLAQRG",–,–,7.24 pM,> 100 pM
Y[Aib]EGTFISDYSI[Aib]LDKIHQEDFVKWLLAQKG [Sequence 1 (Seq ID. 1)],2.38 pM,> 100 pM,–,–
"Y[Aib]EGTFISDYSIALDK(18‑(((23R)-23-carboxyl-2,11,20-trioxo-10,19-diaza-4,7,13,16-tetraoxatricosyl-23-yl)amino)‑18‑oxooctadecanoic acid acetyl)LHQEDFVNWLLAQRG",–,–,6.82 pM,> 100 pM
"Y[Aib]EGTFISDYSIALDRIHQEDFVKWLLAQRG (also: long-acting conjugating component, site and structure not given here) [Peptide 11 (long-acting conjugate of GIP analog, Seq ID. 11)]",–,–,3.5 pM,> 100 pM
"Y[Aib]EGTFISDYSIALDRIHQEDFVNWLLAQKG (also: long-acting conjugating component, site and structure not given here) [Peptide 12 (long-acting conjugate of GIP analog, Seq ID. 12)]",–,–,5.14 pM,> 100 pM
"Y[Aib]EGTFISDYSIALDRIHQQDFVKWLLAQRG (also: long-acting conjugating component, site and structure not given here) [Peptide 13 (long-acting conjugate of GIP analog, Seq ID. 13)]",–,–,5.61 pM,> 100 pM
"Y[Aib]EGTFISDYSIALDRIHQQDFVNWLLAQK(18‑(((23R)-23-carboxyl-2,11,20-trioxo-10,19-diaza-4,7,13,16-tetraoxatricosyl-23-yl)amino)‑18‑oxooctadecanoic acid acetyl)G",–,–,3.5 pM,> 100 pM
"Y[Aib]EGTFISDYSIALDRLHQEDFVKWLLAQRG (also: long-acting conjugating component, site and structure not given here) [Peptide 15 (long-acting conjugate of GIP analog, Seq ID. 15)]",–,–,9.14 pM,> 100 pM
"Y[Aib]EGTFISDYSIALDRLHQEDFVNWLLAQKG (also: long-acting conjugating component, site and structure not given here) [Peptide 16 (long-acting conjugate of GIP analog, Seq ID. 16)]",–,–,3.77 pM,> 100 pM
"Y[Aib]EGTFISDYSIALDRLHQQDFVKWLLAQRG (also: long-acting conjugating component, site and structure not given here) [Peptide 17 (long-acting conjugate of GIP analog, Seq ID. 17)]",–,–,25.7 pM,> 100 pM
"Y[Aib]EGTFISDYSIALDRLHQQDFVNWLLAQKG (also: long-acting conjugating component, site and structure not given here) [Peptide 18 (long-acting conjugate of GIP analog, Seq ID. 18)]",–,–,21.1 pM,> 100 pM
Y[Aib]EGTFISDYSI[Aib]LDEIHQKDFVKWLLAQKG [Sequence 2 (Seq ID. 2)],10.7 pM,> 100 pM,–,–
